Data from the supplement of paper PMC11908140.

B1: library; numbered along this chain (parent)
chain: MRKPRAAVGSGHRKQAASQEGRQKHAKNNSQAKPSACDGLARQPEEVVLQASVSSYHLFRDVAEVTAFRGSLLSWYDQEKRDLPWRRRAEDEMDLDRRAYAVWVSEVMLQQTQVATVINYYTGWMQKWPTLQDLASASLEEVNQLWAGLGYYSRGRRLQEGARKVVEELGGHMPRTAETLQQLLPGVGRYTAGAIASIAFGQATGVVDGNVARVLCRVRAIGADPSSTLVSQQLWGLAQQLVDPARPGDFNQAAMELGATVCTPQRPLCSQCPVESLCRARQRVEQEQLLASGSLSGSPDVEECAPNTGQCHLCLPPSEPWDQTLGVVNFPRKASRKPPREESSATCVLEQPGALGAQILLVQRPNSGLLAGLWEFPSVTWEPSEQLQRKALLQELQRWAGPLPATHLRHLGEVVHTFSHIKLTYQVYGLALEGQTPVTTVPPGARWLTQEEFHTAAVSTAMKKVFRVYQGQQPGTCMGSKRSQVSSPCSRKKPRMGQQVLDNFFRSHISTDAHSLNSAAQ

Variants of: B1
Test: 8OG:A repair function score (normalized; synonymous = 0, nonsense = -1) (normalized log-likelihood score); higher = more repair activity (WT-like)
Conditions: with 8OG:A DNA repair reporter (GFP) in HEK-293 MUTYH KO cells
Procedure: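 Saturation mutagenesis (NNN codon scan) of the MUTYH cDNA (521-aa nuclear isoform NM_001048174.1 / NP_001041639), stably expressed under doxycycline induction in HEK-293 MUTYH knockout cells. Cells were co-transfected with an 8OG:A-bearing GFP repair reporter plus mCherry and sorted 72 h later into GFP+ and GFP− bins, three replicates per tile. The Rosace log2 enrichment (GFP+ vs GFP−) was converted per tile to a normalized function score with synonymous variants centered at 0 and nonsense variants (codons 1-471) at -1; low-abundance variants were removed.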

8OG:A repair function score, by site and new letter:
G170: K -0.0295; C -0.00944; T -0.248; L -0.232; S 0.00875; E -0.0272; F -0.166; D 0.0788; H 0.094; R -0.0153; I -0.395; M -0.0605; N 0.0595; P -0.872; Q 0.0993
R156: K 0.00226; Y -0.337; Q -0.136; P -0.341; T -0.238; C -0.162; M -0.207; W -0.133; D -0.477; S -0.193; A -0.122; F -0.3; G -0.287; H -0.0809; V -0.117; I -0.152; L -0.142; N -0.179; E -0.319
K164: S -0.168; E -0.382; W -0.0721; I 0.0586; C -0.21; M 0.168; N -0.37; Q -0.101; Y -0.0367; V 0.027; H -0.186; L 0.0383; T -0.103; A -0.133; F 0.104; D -0.483; G -0.431; P -1.12; R -0.0158
G161: I -0.841; P -0.919; E -0.898; N -0.325; Q -0.911; W -1.19; R -1.15; H -1.12; D -0.688; S -0.13; K -1.07; L -1.01; M -0.776; T -0.317; C -0.293; Y -1.04; A -0.00122; V -0.579; F -1.03
A162: G -0.456; D -1.2; H -1.08; P -1.19; W -0.917; E -1.14; T -0.155; R -1.02; Q -0.953; V -0.278; F -1.26; S -0.159; K -1.03; M -0.887; Y -1.22; I -0.523; C -0.175; N -0.917; L -1
V166: S -0.0616; D -0.293; K -0.116; T -0.155; M -0.0629; R -0.182; W 0.0741; C 0.0203; L -0.161; G -0.466; Q -0.0914; P -0.858; F -0.0998; I 0.0212; Y -0.184; E -0.327; A -0.1; N -0.124; H -0.183
E168: Q 0.0147; F -0.102; I -0.134; W -0.201; G -0.24; H -0.103; M -0.0593; T -0.0102; K -0.00268; V -0.0341; D -0.0557; N 0.0349; Y -0.173; S -0.0595; R -0.0574; C 0.0112; P -0.661; A -0.135; L -0.0373
V165: D -0.91; Y -1.15; C -0.0561; A -0.341; E -1.11; G -0.877; M -0.283; K -1.13; H -1.11; R -1.07; N -1.08; Q -0.882; P -1.08; F -0.802; I -0.0615; W -0.957; L -0.0671; S -0.732; T -0.312
E167: Q 0.141; I -0.0169; A -0.18; D 0.018; S -0.0659; F 0.0154; V -0.0209; G 0.00335; K 0.0784; N 0.0307; T 0.067; R -0.0147; W -0.0936; L 0.00804; C -0.0723; H -0.0317; Y 0.0239; M -0.0528; P -0.768
G155: Y -0.667; M -0.629; T -0.218; D -0.75; N -0.213; C -0.117; L -0.574; Q -0.682; R -0.543; F -0.526; S -0.0824; H -0.388; A 0.037; I -0.489; W -0.265; V -0.116; E -0.691; P -0.0172; K -0.654
E160: R -0.136; Q 0.018; D -0.104; I -0.0174; M 0.0471; K -0.0797; C -0.0918; H -0.264; T -0.0143; F -0.0745; G -0.116; Y -0.063; P -0.814; N -0.0629; L -0.0898; A 0.0427; S -0.0339; V -0.00913; W 0.0263
L158: M -0.194; K -1.19; E -1.05; Y -1.09; T -0.756; H -0.935; N -1.2; R -1.09; G -1.15; P -0.951; W -0.991; A -0.675; C -0.573; F -0.384; V -0.372; Q -1.31; S -1.05; D -1.18; I -0.11
R157: W -0.0111; P -1.11; H -0.0973; Y -0.068; T -0.216; N 0.023; V -0.362; I -0.517; D -0.365; G -0.381; E -0.665; C -0.297; S -0.182; Q -0.117; F -0.0928; M -0.0764; A -0.14; L -0.141; K -0.0295
Q159: K 0.0628; D -0.824; T -0.0681; W 0.287; N -0.144; V 0.0456; E -0.416; P -0.377; A -0.0252; G -0.279; H 0.0232; I 0.0245; R 0.162; F 0.0628; S -0.121; L 0.127; M 0.0724; C 0.0194; Y 0.116
R163: Y -0.137; W -0.296; A -0.182; H -0.238; K -0.132; P -0.887; F -0.174; V -0.0917; I -0.115; D -0.387; L -0.128; M -0.0916; S -0.122; T -0.128; E -0.375; N -0.164; C -0.00395; G -0.378; Q -0.143
R154: M -1.16; T -1.16; E -1.23; A -0.88; Q -1.06; S -1.03; D -1.11; Y -1.21; L -1.06; K -0.609; I -0.971; F -1.05; V -1.04; C -1.08; W -1.03; G -1.12; H -0.851; P -1.06; N -0.885
L169: W -0.0366; I -0.337; S -0.284; V -0.409; T -0.186; M 0.0203; D -0.386; A -0.177; C -0.0691; Q -0.00403; N -0.172; G -0.273; H -0.0549; F -0.0235; K -0.189; Y -0.104; R -0.105; E -0.261; P -0.645
S153: Y -0.143; T 0.158; R -0.265; P 0.0253; V -0.00826; K -0.0744; F 0.0735; M -0.237; I -0.105; W -0.198; Q -0.127; L 0.0439; H -0.0258; N -0.152; G -0.237
